Experimental findings from publication PMC8800115 (2021) are described below.

The target of the test is K63-linked tetraubiquitin (UniProt P0CG48 1-76, G76 to K63 isopeptide bonds between adjacent ubiquitins). As to the kind of experiment: ITC.

B1: ASCC2 CUE domain (construct of the ITC experiments of Figure 2) (domain or fragment)
chain: AAVGPAMCGVELDSLISQVKDLLPDLGEGFILACLEYYHYDPEQVINNILEERLAPTLSQLDRNLDREM
Consider B1, for which the Kd was 2100 nM.
